{"source": "paper PMC8191301", "about": "(The Journal of Biological Chemistry, 2021)", "key": {"[1]": {"target": "hPCNA (Homo sapiens, UniProt P12004)", "sequence (P12004 whole entry)": "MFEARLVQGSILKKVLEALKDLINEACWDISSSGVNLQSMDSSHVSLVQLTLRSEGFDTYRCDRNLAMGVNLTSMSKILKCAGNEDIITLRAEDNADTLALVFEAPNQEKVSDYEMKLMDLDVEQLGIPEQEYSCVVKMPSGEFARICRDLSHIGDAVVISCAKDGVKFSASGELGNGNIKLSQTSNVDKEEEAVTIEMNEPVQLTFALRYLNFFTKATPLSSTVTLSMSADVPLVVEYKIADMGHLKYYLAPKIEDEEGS", "details": "cited from earlier work"}, "[2]": {"target": "T1, human Proliferating Cell Nuclear Antigen (hPCNA) (human, UniProt P12004)", "T1 sequence (P12004 1-259)": "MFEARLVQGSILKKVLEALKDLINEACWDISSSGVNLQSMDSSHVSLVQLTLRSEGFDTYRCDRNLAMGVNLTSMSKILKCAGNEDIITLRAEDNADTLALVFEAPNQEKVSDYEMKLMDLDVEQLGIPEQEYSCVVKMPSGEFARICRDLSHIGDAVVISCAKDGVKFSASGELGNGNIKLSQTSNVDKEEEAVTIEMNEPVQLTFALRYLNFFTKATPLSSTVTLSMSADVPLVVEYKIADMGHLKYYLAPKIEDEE", "assay": "SPR"}, "[3]": {"target": "T1, human Proliferating Cell Nuclear …", "assay": "SPR", "remark": "listed apart in the source"}}, "note": "Like-named read-outs stand apart in the source and are kept apart here. No end group written: not given here.", "data": [{"molecule": "Tyr151Phe^P8–modified p21 peptide: literature p21 (residues 139–160) peptide with Tyr151Phe modification (GRKRRQTSMTDFFHSKRRLIFS; UniProt P38936 139-160, looked up, variant Y151F) [reference compound]", "values": [{"measurement": "fold decrease in binding affinity compared with the analogous native peptide (residues 139–160)", "setting": "[1]; isothermal calorimetry, ref [22]", "result": 3, "unit": "fold"}]}, {"molecule": "p21: cell-cycle regulator protein, highest affinity hPCNA-interacting protein known", "values": [{"measurement": "Kd", "setting": "[1]; p21 protein binding hPCNA, ref [13], [14], [15]", "result": "2.5 to 90", "unit": "nM"}]}, {"molecule": "KRRQTSMTDHYHSKR-NH2", "note": "[p21μ–F150H]", "values": [{"measurement": "Kd", "setting": "[2]", "result": 159, "unit": "nM"}]}, {"molecule": "KRRQTSMTDYFHSKR-NH2", "note": "[p21μ–FY150/151YF]", "values": [{"measurement": "Kd", "setting": "[2]", "result": 2.18, "unit": "nM"}]}, {"molecule": "KRRQTSITDFYHSKR-NH2", "note": "[p21μ–M147I]", "values": [{"measurement": "Kd", "setting": "[2]", "result": 11.1, "unit": "nM"}]}, {"molecule": "KRRDTSMTDFYHSKR-NH2", "note": "[p21μ–Q144D]", "values": [{"measurement": "Kd", "setting": "[2]", "result": 714, "unit": "nM"}]}, {"molecule": "KRRNTSMTDFYHSKR-NH2", "note": "[p21μ–Q144N]", "values": [{"measurement": "Kd", "setting": "[2]", "result": 772, "unit": "nM"}]}, {"molecule": "KRRQKSMTDFYHSKR-NH2", "note": "[p21μ–T145K]", "values": [{"measurement": "fold decrease in affinity relative to p21μ", "setting": "[2]", "result": 8, "unit": "fold"}]}, {"molecule": "KRRQRSMTDFYHSKR-NH2", "note": "[p21μ–T145R]", "values": [{"measurement": "fold decrease in affinity relative to p21μ", "setting": "[2]", "result": 7, "unit": "fold"}]}, {"molecule": "KRRQTSMEDFYHSKR-NH2", "note": "[p21μ–T148E]", "values": [{"measurement": "fold lower affinity than p21μ", "setting": "[2]", "result": "~6", "unit": "fold"}]}, {"molecule": "KRRQTSMDEFYHSKR-NH2", "note": "[p21μ–TD148/149DE]", "values": [{"measurement": "fold lower affinity than p21μ", "setting": "[2]", "result": 28, "unit": "fold"}]}, {"molecule": "KRRQTSMEEFYHSKR-NH2", "note": "[p21μ–TD148/149EE]", "values": [{"measurement": "fold lower affinity than p21μ", "setting": "[2]", "result": 4, "unit": "fold"}]}, {"molecule": "KRRQKRMTDFYHSKR-NH2", "note": "[p21μ–TS145/146KR]", "values": [{"measurement": "Kd", "setting": "[2]", "result": 37, "unit": "nM"}]}, {"molecule": "KRRQRKMTDFYHSKR-NH2", "note": "[p21μ–TS145/146RK]", "values": [{"measurement": "Kd", "setting": "[2]", "result": 17.3, "unit": "nM"}]}, {"molecule": "KRRQRRMTDFYHSKR-NH2", "note": "[p21μ–TS145/146RR]", "values": [{"measurement": "Kd", "setting": "[2]", "result": 1.83, "unit": "nM"}]}, {"molecule": "KRRQRRVTDFFHSKR-NH2", "note": "[p21μ–Cdt1]", "values": [{"measurement": "Kd", "setting": "[3]", "result": 8.76, "unit": "nM"}]}, {"molecule": "KRRQKKITDYFHSKR-NH2", "note": "[p21μ–Pogo]", "values": [{"measurement": "Kd", "setting": "[3]", "result": 8.82, "unit": "nM"}]}, {"molecule": "KRRMQTLESFFHSKR-NH2", "note": "[p21μ–pol η]", "values": [{"measurement": "Kd", "setting": "[3]", "result": 2540, "unit": "nM"}]}, {"molecule": "KRRQTRITEYFHSKR-NH2 (designed binder)", "note": "[p21μ–RD2]", "values": [{"measurement": "Kd", "setting": "[2]", "result": 1.12, "unit": "nM"}]}]}
